Here are results for five molecules from patent US20040049800A1, “Rapid methods for assessing therapeutic activity using animals expressing constitutively active G protein coupled receptors” (priority 2002, published 2004).

The subject of experiment [1] is cAMP production. Nature of the experiment: basal level cAMP production of MC-4 receptor mutant. Format: cell-based. The following applies: FIG. 2. From the text:
FIG. 2 is a graph showing the constitutive activity of a D146M MC-4 receptor mutant as assayed by measuring basal level cAMP production.
(§1) Briefly, HEK293 cells were cotransfected, as described above, with an expression vector encoding either the wild-type MC-4 receptor or the Asp146Met mutant MC-4 receptor and the reporter construct, SMS-Luc. As a negative control, cells were transfected with SMS-Luc and pcDNA1. Basal and ligand (αMHS) induced activity of the negative control, the wild-type MC-4 receptor, and the Asp146Met mutant MC-4 receptor were measured using the luciferase assay described above. […] Other constitutively active MC-4 receptors may be generated by this or any other approach and introduced as transgenics into animals of the invention
(cAMP levels reflect the balance of adenylyl cyclase and phosphodiesterase activity.)

In experiment [2] the test system is SMS-Luc reporter in HEK293 cells. Nature of the experiment: SMS-Luc luciferase reporter assay of MC-4 receptors in HEK293 cells. It is filed as cell-based. As for the experimental part:
as §1

Experiment [3] has as its target Asn150Ala mutant rat mu opioid receptor (rat) (UniProt P33535). Nature of the experiment: cell-based or functional assay.
Experiment [4] deals with wild-type rat mu opioid receptor (rat) (UniProt P33535). Nature of the experiment: cell-based or functional assay.
The subject of experiment [5] is SRE-Luc + Gq5i reporter in HEK293 cells. In words: SRE-Luc/Gq5i luciferase reporter assay in transfected HEK293 cells. Format: cell-based. The following applies: for stimulation of basal level activity: Asn150Ala mutant versus wild-type receptor; for Ligand Induced Activity (Light Emission) / Basal Activity (Light Emission): HEK293 cells; for Ligand Induced Activity (Light Emission): ligand DAMGO; for Basal Activity (Light Emission): no ligand. On the procedure: Constitutive activity of the Asn150Ala mutant rat mu opioid receptor was assessed using a luciferase assay. The rat mu opioid receptor is a Gαi coupled receptor. Therefore we chose to use the Gq5i reporter system, described in detail above (Broach and Thorner, supra), which switches the signaling pathway from Gαi to Gαq for reliable positive readout. HEK293 cells were transfected with the reporter construct SRE-Luc, an expression vector containing nucleic acid encoding Gq5i (Broach and Thorner, supra), and an expression vector containing nucleic acid encoding either the wild-type or the Asn150Ala mutant rat mu opioid receptor. Basal and ligand-stimulated luciferase activity was measured. The ligand used in this assay was [D-Ala^2-MePhe^4, Gly-ol^5]enkephalin] (DAMGO). As a negative control, HEK293 cells were transfected with pcDNA1 (empty vector DNA), SRE-Luc, and the expression vector containing nucleic acid encoding Gq5i (Broach and Thorner, supra).
The luciferase assay was carried out as follows. On day 1, HEK293 cells in a T75 flask were washed with 15 ml serum-free media (or PBS), trypsinized with 5 ml 0.05% trypsin-EDTA (Gibco #25300-062), incubated at 37° C. for 3 minutes at which time 6-7 ml complete HEK293 media (Gibco #12100-046) and 10% Fetal Bovine Serum (Intergen #1050-90) were added. Thereafter, cells were collected in 50 ml centrifuge tubes, pelleted at 800-900 rpm (RCF ˜275), and resuspend in 20 ml complete media. The cells were counted using a haemocytometer and diluted to 85,000 cells/ml in complete media. Using a repeat pipettor or cell plater, 100 μl of cells were added to each well of a Primaria 96-well plate (Falcon #353872). Cells were then incubated at 37° C., 5% CO2 until use at 48 hours.
On day 3, cells were transfected using LipofectAMINE™ according to the manufacturer's protocol (Gibco #18324-012, Rockville, Md.).
On day 4, cells were stimulated as follows. Ligands for the receptor, either DAMGO or a non-peptide ligand (e.g., naloxone or naltrexone), were diluted to a desired concentration in serum-free media containing 0.15 mM PMSF (or other protease inhibitor(s)). The transfection media was then completely removed from cells and 50-100 μl stimulation media (i.e., media containing candidate ligands or the corresponding ligand free solvent) was added to each well. The cells were incubated for the desired time (standard is overnight) at 37° C., 5% CO2, although the optimal stimulation time may vary depending on the particular receptor used. The optimal incubation time may be determined systematically by testing a range of incubation times and determining which one yields the highest level of stimulation. For concomitant assessment of two ligands (e.g., ligand induced inhibition of forskolin stimulated CRE activity) each stimulus is prepared at two times the desired final concentration and mixed in equal volumes prior to addition to cells.
On day 5, an assay for luciferase expression was carried out according to the manufacturer's instructions (Packard, Meridin, Conn.)
On the technique in general: A reporter such as luciferase makes a cellular process visible.

Experiment [6] relates to phospholipase C-mediated production of inositol phosphate in COS-7 cells. Conditions: absence of agonist; cited from earlier work.
For experiment [7], the system named is SMS-Luc reporter in HEK293 cells. In words: SMS-Luc luciferase reporter assay of CCK-BR receptors in HEK293 cells. Format: cell-based. The following applies: FIG. 3. On the procedure:
In addition to these studies, luciferase assays were performed to measure the constitutive activity of the Leu325Glu CCK-BR mutant. HEK293 cells were transfected (as described above) with SMS-Luc and an expression vector encoding any one of pcDNA1, wild-type CCK-BR, or Leu325Glu CCK-BR.

Residue numbers refer to the chain shown, from its start.

Take “Asp146Met mutant MC-4 receptor: melanocortin-4 receptor with Asp at position 146 of the DRY motif replaced by Met”: the “constitutive activity in cAMP assay” value in experiment [1] is reported as “exhibited constitutive activity”. The “basal level activity versus wild-type MC-4 receptor” value in experiment [2] was “higher basal level activity than its wild-type counterpart”.
Turning to “[D-Ala^2-MePhe^4, Gly-ol^5]enkephalin (peptide)”, the Ligand Induced Activity (Light Emission), SRE-Luc + Gq5i luciferase reporter in HEK293 cells (Light Emission) in experiment [3] is 87000; in experiment [4] it was 87500.

B1: Asn150Ala rat mu opioid receptor: rat mu opioid receptor with Asn150Ala point mutation at position 150 of SEQ ID NO: 1; constitutively active (protein, listed as Rattus norvegicus)
chain: MDSSTGPGNTSDCSDPLAQASCSPAPGSWLNLSHVDGNQSDPCGLNRTGLGGNDSLCPQTGSPSMVTAITIMALYSIVCVVGLFGNFLVMYVIVRYTKMKTATNIYIFNLALADALATSTLPFQSVNYLMGTWPFGTILCKIVISIDYYAMFTSIFTLCTMSVDRYIAVCHPVKALDFRTPRNAKIVNVCNWILSSAIGLPVMFMATTKYRQGSIDCTLTFSHPTWYWENLLKICVFIFAFIMPILIITVCYGLMILRLKSVRMLSGSKEKDRNLRRITRMVLVVVAVFIVCWTPIHIYVIIKALITIPETTFQTVSWHFCIALGYTNSCLNPVLYAFLDENFKRCFREFCIPTSSTIEQQNSTRVRQNTREHPSTANTVDRTNHQLENLEAETAPLP
Turning to B1, in experiment [5], the “stimulation of basal level activity” value is given as “*6.5-fold stimulation of basal level activity”, the “Ligand Induced Activity (Light Emission)” value is 86,996 and the “Basal Activity (Light Emission)” value is listed as “*56,498”. Also, the “stimulation of basal level activity” value in experiment [5] (listed as Asn150Ala mutant mu opioid receptor) is “approximately 6.5 fold”.

B2: wild-type rat mu opioid receptor: wild-type rat mu opioid receptor (SEQ ID NO: 1), Gαi coupled receptor, comparator (protein, listed as Rattus norvegicus)
chain: B1 chain with A150N
As for B2, in experiment [5], the “Ligand Induced Activity (Light Emission)” value is 87,461 and the “Basal Activity (Light Emission)” value was 8,436.

B3: Leu325Glu CCK-BR mutant: human CCK-BR with point mutation Leu325Glu in the third intracellular loop; constitutively active (protein, UniProt P32239 1-447, looked up, variant L325E)
Gastrin/cholecystokinin type …: MELLKLNRSVQGTGPGPGASLCRPGAPLLNSSSVGNLSCEPPRIRGAGTRELELAIRITLYAVIFLMSVGGNMLIIVVLGLSRRLRTVTNAFLLSLAVSDLLLAVACMPFTLLPNLMGTFIFGTVICKAVSYLMGVSVSVSTLSLVAIALERYSAICRPLQARVWQTRSHAARVIVATWLLSGLLMVPYPVYTVVQPVGPRVLQCVHRWPSARVRQTWSVLLLLLLFFIPGVVMAVAYGLISRELYLGLRFDGDSDSDSQSRVRNQGGLPGAVHQNGRCRPETGAVGEDSDGCYVQLPRSRPALELTALTAPGPGSGSRPTQAKELAKKRVVRMLLVIVVLFFLCWLPVYSANTWRAFDGPGAHRALSGAPISFIHLLSYASACVNPLVYCFMHRRFRQACLETCARCCPRPPRARPRALPDEDPPTPSIASLSRLSYTTISTLGPG
In the case of B3, in experiment [6], the “agonist-independent constitutive activity (inositol phosphate production)” value is “triggers constitutive production of inositol phosphates to levels exceeding wild-type CCK-BR”. Also, in experiment [7], the “basal level activity compared to wild-type CCK-BR” value was “increased basal level activity compared to the wild-type CCK-BR”.
